{"source": "patent US20200407467", "proteins": {"B1": {"name": "Caspase-1 (recombinant) (protein)", "chain": "NPAMPTSSGSEGNVKLCSLEEAQRIWKQKSAEIYPIMDKSSRTRLALIICNEEFDSIPRRTGAEVDITGMTMLLQNLGYSVDVKKNLTASDMTTELEAFAHRPEHKTSDSTFLVFMSHGIREGICGKKHSEQVPDILQLNAIFNMLNTKNCPSLKDKPKVIIIQACRGDSPGVVWFKDSVGVSGNLSLPTTEEFEDDAIKKAHIEKDFIAFCSSTPDNVSWRHPTMGSVFIGRLIEHMQEYACSCDVEEIFRKVRFSFEQPDGRAQMPTTERVTLTRCFYLFPGH"}}, "key": {"[1]": {"molecular_target": "T1, ERO1L peptide 91-180 (human library), Q96HE7", "T1 chain": "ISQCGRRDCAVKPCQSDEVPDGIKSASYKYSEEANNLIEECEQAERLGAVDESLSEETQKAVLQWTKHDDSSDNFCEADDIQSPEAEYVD"}, "[2]": {"molecular_target": "T2, C14orf93 peptide 91-180 (human library), Q9H972", "T2 chain": "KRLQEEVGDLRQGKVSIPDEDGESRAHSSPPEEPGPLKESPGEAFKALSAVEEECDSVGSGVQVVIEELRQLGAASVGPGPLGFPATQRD"}, "[3]": {"molecular_target": "T3, HMGXB4 peptide 226-315 (human library), Q9UGU5", "T3 chain": "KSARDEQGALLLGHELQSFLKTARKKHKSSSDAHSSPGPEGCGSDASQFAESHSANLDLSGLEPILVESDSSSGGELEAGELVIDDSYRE"}, "[4]": {"molecular_target": "Gasdermin-D (peptides of the human library)"}, "[5]": {"molecular_target": "T4, HUWE1 peptide 2296-2485 (human library), Q7Z6Z7", "T4 chain": "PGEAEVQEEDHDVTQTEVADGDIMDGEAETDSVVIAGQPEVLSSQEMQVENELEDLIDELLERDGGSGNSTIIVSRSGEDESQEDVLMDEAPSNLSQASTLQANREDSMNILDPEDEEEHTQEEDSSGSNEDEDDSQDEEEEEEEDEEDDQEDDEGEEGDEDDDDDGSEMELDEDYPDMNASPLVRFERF"}, "[6]": {"molecular_target": "T5, GSDMD peptide 259-315 (mouse library)", "T5 chain": "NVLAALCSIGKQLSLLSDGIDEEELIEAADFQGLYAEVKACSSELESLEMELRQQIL"}, "[7]": {"molecular_target": "T6, UHRF1BP1L peptide 991-1080 (human library), A0JNW5", "T6 chain": "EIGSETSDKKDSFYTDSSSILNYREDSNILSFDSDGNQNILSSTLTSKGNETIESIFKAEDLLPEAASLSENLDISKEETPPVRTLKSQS"}, "[8]": {"molecular_target": "T7, HUWE1 peptide 2251-2340 (human library), Q7Z6Z7", "T7 chain": "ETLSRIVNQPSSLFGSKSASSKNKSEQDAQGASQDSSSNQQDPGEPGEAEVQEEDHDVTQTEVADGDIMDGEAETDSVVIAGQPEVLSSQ"}, "[9]": {"molecular_target": "unmapped_NM peptide 91-180 (human library)"}, "[10]": {"molecular_target": "T8, IL1B peptide 75-131 (mouse library)", "T8 chain": "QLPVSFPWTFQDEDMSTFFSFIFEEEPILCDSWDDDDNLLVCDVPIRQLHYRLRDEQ"}, "[11]": {"molecular_target": "T9, LYST peptide 1171-1260 (human library), Q99698", "T9 chain": "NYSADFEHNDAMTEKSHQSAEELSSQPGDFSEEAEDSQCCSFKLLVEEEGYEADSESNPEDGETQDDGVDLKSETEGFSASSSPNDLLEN"}, "[12]": {"molecular_target": "T10, IL1B peptide 74-130 (mouse library)", "T10 chain": "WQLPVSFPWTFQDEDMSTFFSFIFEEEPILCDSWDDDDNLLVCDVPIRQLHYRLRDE"}, "[13]": {"molecular_target": "T11, Efs peptide 181-270 (human library), O43281", "T11 chain": "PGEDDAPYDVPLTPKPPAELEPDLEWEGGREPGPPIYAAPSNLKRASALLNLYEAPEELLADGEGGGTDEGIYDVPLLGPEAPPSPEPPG"}, "[14]": {"molecular_target": "T12, hoxa2 peptide 271-360 (human library), O43364", "T12 chain": "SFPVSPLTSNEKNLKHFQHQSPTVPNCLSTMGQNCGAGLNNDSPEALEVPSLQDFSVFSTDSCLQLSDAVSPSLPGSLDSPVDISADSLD"}, "[15]": {"molecular_target": "T13, Znf462 peptide 1-90 (human library), Q96JM2", "T13 chain": "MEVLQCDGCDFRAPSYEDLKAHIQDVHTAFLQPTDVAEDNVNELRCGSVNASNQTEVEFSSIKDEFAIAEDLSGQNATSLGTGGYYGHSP"}, "[16]": {"molecular_target": "T14, TNS3 peptide 451-540 (human library), Q68CZ2", "T14 chain": "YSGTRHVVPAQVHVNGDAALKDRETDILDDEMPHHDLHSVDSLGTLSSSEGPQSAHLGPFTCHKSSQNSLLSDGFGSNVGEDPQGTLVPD"}, "[17]": {"molecular_target": "HECT, UBA and WWE Domain Containing E3 Ubiquitin Protein Ligase 1 (HUWE1), endogenous in THP-1 cells, Q7Z6Z7"}, "[18]": {"molecular_target": "T15, HUWE1 peptide 2291-2347 (mouse library), Q7TMY8", "T15 chain": "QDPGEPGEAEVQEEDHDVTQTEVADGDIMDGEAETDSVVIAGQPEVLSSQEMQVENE"}, "[19]": {"molecular_target": "T16, ANAPC1 peptide 1-90 (human library), Q9H1A4", "T16 chain": "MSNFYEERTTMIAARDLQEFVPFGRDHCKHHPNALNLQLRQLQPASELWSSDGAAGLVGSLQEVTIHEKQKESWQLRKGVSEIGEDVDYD"}, "[20]": {"molecular_target": "T17, HUWE1 peptide 2341-2430 (human library), Q7Z6Z7", "T17 chain": "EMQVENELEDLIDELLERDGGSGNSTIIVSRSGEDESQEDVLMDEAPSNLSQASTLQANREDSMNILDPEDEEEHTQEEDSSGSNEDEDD"}, "[21]": {"molecular_target": "MAP3K14 peptide 496-585 (human library), Q99558"}, "[22]": {"molecular_target": "T18, IL1B peptide 0-56 (mouse library)", "T18 chain": "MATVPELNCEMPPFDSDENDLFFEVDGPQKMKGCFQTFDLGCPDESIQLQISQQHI"}, "[23]": {"molecular_target": "T19, Hyls1 peptide 1-90 (human library), Q96M11", "T19 chain": "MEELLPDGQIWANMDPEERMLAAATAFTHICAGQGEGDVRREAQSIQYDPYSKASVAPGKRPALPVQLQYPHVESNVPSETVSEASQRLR"}, "[24]": {"molecular_target": "T7-SEPARATE PreScission-cleavable clone, monovalent display (T7Select1-2b)"}, "[25]": {"molecular_target": "LOC100287737 peptide 496-585 (human library)"}, "[26]": {"molecular_target": "T20, Hmcn2 peptide 1576-1665 (human library), Q8NDA2", "T20 chain": "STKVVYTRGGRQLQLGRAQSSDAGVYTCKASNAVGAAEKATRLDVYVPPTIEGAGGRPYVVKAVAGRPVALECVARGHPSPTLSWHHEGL"}, "[27]": {"molecular_target": "T21, ZNF469 peptide 811-900 (human library), Q96JG9", "T21 chain": "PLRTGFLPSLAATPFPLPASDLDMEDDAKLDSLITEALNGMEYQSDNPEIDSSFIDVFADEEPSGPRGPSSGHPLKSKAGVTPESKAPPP"}, "[28]": {"molecular_target": "T22, HUWE1 peptide 2328-2384 (mouse library), Q7TMY8", "T22 chain": "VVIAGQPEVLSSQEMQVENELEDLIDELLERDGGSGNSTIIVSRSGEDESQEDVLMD"}, "[29]": {"molecular_target": "T23, BSN peptide 631-720 (human library), Q9UPA5", "T23 chain": "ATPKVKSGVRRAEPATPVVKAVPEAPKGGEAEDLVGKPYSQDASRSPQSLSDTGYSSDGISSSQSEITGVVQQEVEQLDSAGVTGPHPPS"}, "[30]": {"molecular_target": "T24, GSDMD peptide 222-278 (mouse library)", "T24 chain": "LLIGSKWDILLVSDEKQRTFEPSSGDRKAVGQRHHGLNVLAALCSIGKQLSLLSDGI"}}}
{"protein": "B1", "values": [{"measurement": "Caspase1 fold change", "setting": "[1]", "result": 19.8, "unit": "fold"}, {"measurement": "Caspase1 fold change", "setting": "[2]", "result": 18.2, "unit": "fold"}, {"measurement": "Caspase1 fold change", "setting": "[3]", "result": 16.5, "unit": "fold"}, {"measurement": "enrichment in SEPARATE (human library digest)", "setting": "[4]", "result": "did not score in the assay"}, {"measurement": "Caspase1 fold change", "setting": "[5]", "result": 22.7, "unit": "fold"}, {"measurement": "Caspase1 fold change", "setting": "[6]", "result": 6.78, "unit": "fold"}, {"measurement": "Caspase1 fold change", "setting": "[7]", "result": 16.4, "unit": "fold"}, {"measurement": "Caspase1 fold change", "setting": "[8]", "result": 17.6, "unit": "fold"}, {"measurement": "Caspase1 fold change", "setting": "[9]", "result": 18.7, "unit": "fold"}, {"measurement": "Caspase1 fold change", "setting": "[10]", "result": 8.8, "unit": "fold"}, {"measurement": "Caspase1 fold change", "setting": "[11]", "result": 21, "unit": "fold"}, {"measurement": "Caspase1 fold change", "setting": "[12]", "result": 13.2, "unit": "fold"}, {"measurement": "Caspase1 fold change", "setting": "[13]", "result": 21.1, "unit": "fold"}, {"measurement": "Caspase1 fold change", "setting": "[14]", "result": 17.1, "unit": "fold"}, {"measurement": "Caspase1 fold change", "setting": "[15]", "result": 19.1, "unit": "fold"}, {"measurement": "Caspase1 fold change", "setting": "[16]", "result": 18.7, "unit": "fold"}, {"measurement": "Western blot, cleavage of endogenous HUWE1 in THP-1 lysate", "setting": "[17]", "result": "robust cleavage of endogenous HUWE1"}, {"measurement": "Caspase1 fold change", "setting": "[18]", "result": 6.13, "unit": "fold"}, {"measurement": "Caspase1 fold change", "setting": "[19]", "result": 16.4, "unit": "fold"}, {"measurement": "Caspase1 fold change", "setting": "[20]", "result": 16.6, "unit": "fold"}, {"measurement": "Caspase1 fold change", "setting": "[21]", "result": 16.5, "unit": "fold"}, {"measurement": "Caspase1 fold change", "setting": "[22]", "result": 8.1, "unit": "fold"}, {"measurement": "Caspase1 fold change", "setting": "[23]", "result": 19.7, "unit": "fold"}, {"measurement": "enrichment of the PreScission digestible clone spiked into the human library", "setting": "[24]", "result": "no enrichment is observed when digested with Caspase-1"}, {"measurement": "Caspase1 fold change", "setting": "[25]", "result": 16.4, "unit": "fold"}, {"measurement": "Caspase1 fold change", "setting": "[26]", "result": 16.3, "unit": "fold"}, {"measurement": "Caspase1 fold change", "setting": "[27]", "result": 16.8, "unit": "fold"}, {"measurement": "Caspase1 fold change", "setting": "[28]", "result": 23.1, "unit": "fold"}, {"measurement": "Caspase1 fold change", "setting": "[29]", "result": 18.8, "unit": "fold"}, {"measurement": "Caspase1 fold change", "setting": "[30]", "result": 4.23, "unit": "fold"}]}
